{
  "source": "paper doi:10.1101/2020.05.29.124305",
  "about": "(bioRxiv, 2020)",
  "proteins": {"B1": {"name": "Human ASCT2 (Alanine-Serine-Cysteine Transporter 2, SLC1A5) (natural protein)", "chain": "MVADPPRDSKGLAAAEPTANGGLALASIEDQGAAAGGYCGSRDQVRRCLRANLLVLLTVVAVVAGVALGLGVSGAGGALALGPERLSAFVFPGELLLRLLRMIILPLVVCSLIGGAASLDPGALGRLGAWALLFFLVTTLLASALGVGLALALQPGAASAAINASVGAAGSAENAPSKEVLDSFLDLARNIFPSNLVSAAFRSYSTTYEERNITGTRVKVPVGQEVEGMNILGLVVFAIVFGVALRKLGPEGELLIRFFNSFNEATMVLVSWIMWYAPVGIMFLVAGKIVEMEDVGLLFARLGKYILCCLLGHAIHGLLVLPLIYFLFTRKNPYRFLWGIVTPLATAFGTSSSSATLPLMMKCVEENNGVAKHISRFILPIGATVNMDGAALFQCVAAVFIAQLSQQSLDFVKIITILVTATASSVGAAGIPAGGVLTLAIILEAVNLPVDHISLILAVDWLVDRSCTVLNVEGDALGAGLLQNYVDRTESRSTEPELIQVKSELPLDPLPVPTEEGNPLLKHYRGPAGDATVASEKESVM"}},
  "target": "the molecule itself",
  "assay": "cryo-EM structure",
  "data": [
    {"protein": "B1", "values": [
      {"measurement": "stoichiometry N", "value": 3}
    ]}
  ]
}
